Reference: patent US20160106861A1, “AXL ANTIBODY-DRUG CONJUGATE AND ITS USE FOR THE TREATMENT OF CANCER” (PIERRE FABRE MEDICAMENT, priority 2013, published 2016)

Experiments:
[1] = target: T1, rhDtk-Fc (R and D Systems, cat N° 859-DK) (human, UniProt Q06418 41-428, limits assumed); assay: ELISA on coated protein
T1 construct: Bought protein; also called Tyro3; not shown: Fc of human IgG
T1 sequence (looked up): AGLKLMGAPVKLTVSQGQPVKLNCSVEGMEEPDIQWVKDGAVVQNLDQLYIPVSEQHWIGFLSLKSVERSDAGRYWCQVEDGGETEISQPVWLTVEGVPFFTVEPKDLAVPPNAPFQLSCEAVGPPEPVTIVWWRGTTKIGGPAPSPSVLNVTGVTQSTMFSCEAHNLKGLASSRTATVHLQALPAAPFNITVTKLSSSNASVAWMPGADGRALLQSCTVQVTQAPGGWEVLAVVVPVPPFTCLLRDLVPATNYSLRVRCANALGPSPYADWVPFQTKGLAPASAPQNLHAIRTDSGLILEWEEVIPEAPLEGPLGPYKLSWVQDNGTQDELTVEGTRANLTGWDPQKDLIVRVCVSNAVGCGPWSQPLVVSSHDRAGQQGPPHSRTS

[2] = target: T2, rhMer-Fc (R and D Systems, cat N° 891-MR) (human, UniProt Q12866 26-499, limits assumed); assay: ELISA on coated protein
T2 construct: Bought protein; not shown: Fc of human IgG
T2 sequence (looked up): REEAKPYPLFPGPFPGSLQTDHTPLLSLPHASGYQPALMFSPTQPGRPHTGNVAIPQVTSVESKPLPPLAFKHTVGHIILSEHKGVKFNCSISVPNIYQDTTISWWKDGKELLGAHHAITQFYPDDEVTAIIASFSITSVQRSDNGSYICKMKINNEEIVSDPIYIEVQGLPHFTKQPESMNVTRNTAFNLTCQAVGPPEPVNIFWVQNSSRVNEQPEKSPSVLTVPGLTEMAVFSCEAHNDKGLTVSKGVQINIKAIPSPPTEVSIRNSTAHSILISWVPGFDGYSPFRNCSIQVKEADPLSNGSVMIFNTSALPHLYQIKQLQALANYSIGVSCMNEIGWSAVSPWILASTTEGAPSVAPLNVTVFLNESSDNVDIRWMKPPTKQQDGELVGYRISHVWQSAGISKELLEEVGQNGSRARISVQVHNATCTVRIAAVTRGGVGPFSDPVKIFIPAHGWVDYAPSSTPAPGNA

rhDtk-Fc = target: T3, rhDtk-Fc (Homo sapiens, UniProt Q06418); assay: ELISA binding on immobilized rhDtk-Fc protein; conditions: starting concentration 5 μg/ml, 1/2 serial dilutions
T3 construct: purchased R and D Systems 859-DK
T3 sequence (Q06418 with tags, fused parts or gaps limits assumed): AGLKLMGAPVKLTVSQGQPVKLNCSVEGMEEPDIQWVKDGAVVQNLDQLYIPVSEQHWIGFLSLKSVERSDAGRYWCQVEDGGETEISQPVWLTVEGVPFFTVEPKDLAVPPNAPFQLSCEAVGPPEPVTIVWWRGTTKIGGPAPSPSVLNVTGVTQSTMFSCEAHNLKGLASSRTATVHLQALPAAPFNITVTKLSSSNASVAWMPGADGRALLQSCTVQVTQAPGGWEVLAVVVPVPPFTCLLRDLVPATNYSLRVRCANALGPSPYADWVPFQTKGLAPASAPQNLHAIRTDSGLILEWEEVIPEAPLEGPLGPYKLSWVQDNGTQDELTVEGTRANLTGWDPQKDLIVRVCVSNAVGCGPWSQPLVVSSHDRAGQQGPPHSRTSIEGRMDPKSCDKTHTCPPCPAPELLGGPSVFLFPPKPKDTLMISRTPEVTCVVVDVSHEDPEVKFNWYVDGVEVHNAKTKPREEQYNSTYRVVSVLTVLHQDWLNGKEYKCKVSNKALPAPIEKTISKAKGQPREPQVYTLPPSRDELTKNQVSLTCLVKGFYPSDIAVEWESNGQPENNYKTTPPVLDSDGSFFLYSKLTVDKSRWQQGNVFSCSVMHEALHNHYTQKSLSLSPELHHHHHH
Experimental: Briefly, the recombinant human Axl-Fc (R and D systems, cat N° 154AL/CF), rhDtk (R and D Systems, cat N° 859-DK) or rhMer-Fc (R and D Systems, cat N° 891-MR) proteins were coated overnight at 4° C. to Immulon II 96-well plates and, after a 1 h blocking step with a 0.5% gelatine solution, 1613F12 was added for an additional 1 h at 37° C. at starting concentration of 5 μg/ml (3.33 10^−8M). Then ½ serial dilutions were done over 12 columns. Plates were washed and a goat anti-mouse (Jackson) specific IgG-HRP was added for 1 h at 37° C. Reaction development was performed using the TMB substrate solution. The isotype control antibody mIgG1 and the commercial anti-Axl Mab 154 antibody were also used in parallel. Coating controls were performed in presence of a goat anti-human IgG Fc polyclonal serum labelled with HRP (Jackson, ref 109-035-098) and/or in presence of a HRP-coupled anti-Histidine antibody (R and D Systems, ref: MAB050H).

[3] = target: T4, human Axl receptor on the surface of human tumor cells (human, UniProt P30530 26-894); assay: flow cytometry on human tumor cells
T4 construct: Endogenous Axl on human tumor cell lines (SN12C, Calu-1, MDA-MB435S, MDA-MB231, NCI-H125, Panc1); also called cell-surface Axl; membrane Axl receptor
T4 sequence: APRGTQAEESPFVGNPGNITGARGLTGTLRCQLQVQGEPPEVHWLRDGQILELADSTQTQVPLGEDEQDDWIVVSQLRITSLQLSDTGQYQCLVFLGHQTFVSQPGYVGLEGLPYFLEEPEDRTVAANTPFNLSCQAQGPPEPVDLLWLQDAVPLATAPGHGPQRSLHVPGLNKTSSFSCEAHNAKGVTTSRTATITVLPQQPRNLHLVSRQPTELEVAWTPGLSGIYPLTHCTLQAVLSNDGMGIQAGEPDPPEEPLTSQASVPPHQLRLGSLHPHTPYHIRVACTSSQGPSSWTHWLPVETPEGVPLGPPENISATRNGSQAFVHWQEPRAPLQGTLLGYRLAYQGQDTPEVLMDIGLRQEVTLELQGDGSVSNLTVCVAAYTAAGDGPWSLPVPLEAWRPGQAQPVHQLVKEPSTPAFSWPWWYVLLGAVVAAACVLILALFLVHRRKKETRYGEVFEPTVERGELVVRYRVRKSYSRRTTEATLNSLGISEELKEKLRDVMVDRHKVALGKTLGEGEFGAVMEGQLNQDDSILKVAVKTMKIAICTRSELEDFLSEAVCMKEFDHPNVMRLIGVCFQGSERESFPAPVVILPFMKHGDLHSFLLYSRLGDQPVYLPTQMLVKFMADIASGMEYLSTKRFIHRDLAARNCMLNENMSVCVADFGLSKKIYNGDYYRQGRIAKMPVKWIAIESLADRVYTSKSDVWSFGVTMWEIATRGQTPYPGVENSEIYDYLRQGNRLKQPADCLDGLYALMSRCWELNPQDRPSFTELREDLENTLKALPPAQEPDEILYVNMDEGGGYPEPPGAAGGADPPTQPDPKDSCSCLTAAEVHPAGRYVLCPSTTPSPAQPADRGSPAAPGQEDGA

[4] = target: T5, recombinant human Axl-Fc (R and D Systems, cat N° 154AL/CF) (human, UniProt P30530 26-451); assay: ELISA on coated rhAxl-Fc
T5 construct: Bought protein; also called rhAxl-Fc; rh Axl-Fc protein; not shown: Fc of human IgG (coating control with anti-human IgG Fc)
T5 sequence: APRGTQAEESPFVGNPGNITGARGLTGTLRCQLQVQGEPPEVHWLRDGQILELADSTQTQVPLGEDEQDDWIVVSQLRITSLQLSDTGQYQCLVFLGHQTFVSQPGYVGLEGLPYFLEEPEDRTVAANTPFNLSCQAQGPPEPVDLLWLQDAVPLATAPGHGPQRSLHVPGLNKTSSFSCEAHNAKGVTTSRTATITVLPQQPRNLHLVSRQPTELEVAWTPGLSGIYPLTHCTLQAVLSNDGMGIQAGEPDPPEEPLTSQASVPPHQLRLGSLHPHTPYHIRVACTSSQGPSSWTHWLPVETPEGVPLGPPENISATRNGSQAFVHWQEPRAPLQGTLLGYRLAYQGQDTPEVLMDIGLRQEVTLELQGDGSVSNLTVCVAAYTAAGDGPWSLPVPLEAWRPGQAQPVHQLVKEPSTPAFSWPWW

binding result [1]: no binding | binding result [2]: no binding | binding on rhDtk (ELISA) (rhDtk-Fc): does not bind | binding result [3]: binds | binding result [4]: binds
B1: m1613F12 (murine 1613F12, hybridoma CNCM I-4505) (antibody, V domains shown)
VH: EVHLQQSGAELVKPGASVKLSCTASGFNIRDTYIHWVKQRPEQGLEWIGRLDPANGHTKYGPNFQGRATMTSDTSSNTAYLQLSSLTSEDTAVYYCARGAYYYGSSGLFYFDYWGQGTTLSVSS
VL: DVQITQSPSYLATSPGETITINCRASKSISKYLAWYQEKPGKTNKLLIYSGSTLQSGVPSRFSGSGSGTDFTLTISSLEPEDFAMYFCQQHHEYPLTFGAGTELELK
notes: Murine monoclonal antibody; also called Axl antibody
